The values that follow come from patent US20070009524A1.

Experiment [1] deals with human lymphotoxin (TNFβ) (human) (UniProt P01374). As to the kind of experiment: cell-based or functional assay.
In experiment [2] the target is human tumor necrosis factor-α (TNFα) (human) (UniProt P01375). As to the kind of experiment: cell-based or functional assay.
Chain of human tumor necrosis factor-α (TNFα) (human) (P01375 77-233): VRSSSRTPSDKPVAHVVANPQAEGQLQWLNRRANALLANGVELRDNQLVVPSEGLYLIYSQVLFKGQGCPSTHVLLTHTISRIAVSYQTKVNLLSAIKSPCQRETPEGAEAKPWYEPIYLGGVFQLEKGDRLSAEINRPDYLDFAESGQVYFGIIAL

Chain of human lymphotoxin (TNFβ) (human) (P01374 35-205 limits assumed): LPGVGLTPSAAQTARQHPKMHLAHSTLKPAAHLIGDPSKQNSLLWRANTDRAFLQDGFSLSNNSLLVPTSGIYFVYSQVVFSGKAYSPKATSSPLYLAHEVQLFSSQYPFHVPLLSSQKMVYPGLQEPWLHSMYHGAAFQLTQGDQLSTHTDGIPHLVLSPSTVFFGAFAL

Turning to “p75P-sf2 fusion protein (from UniProt P20333 23-204) (Fc fusion)”, the concentration to half-inhibit human TNFβ at 2 pM (WEHI 164 cytotoxicity) in experiment [1] was determined as 31 pM.

B1: chimeric mouse/human IgG1 anti-platelet mAb (7E3) (antibody, INN chains, looked up, V domains shown)
VH: EVQLQQSGTVLARPGASVKMSCEASGYTFTNYWMHWVKQRPGQGLEWIGAIYPGNSDTSYIQKFKGKAKLTAVTSTTSVYMELSSLTNEDSAVYYCTLYDGYYVFAYWGQGTLVTVSA
VL: EIVLTQSPVTLSVTPGDSVSLSCRASRDISNNLHWFQQTSHESPRLLIKYASQSMSGIPSRFSGSGSGTDFTLSINSVETEDFGMYFCQQTNSWPYTFGGGTKLEIK
modifications: chimeric IgG1
As to B1, in experiment [2], the IL-6 secreted by FS-4 fibroblasts, TNF 0.3 ng/ml, 4 µg/ml antibody worked out at 1.6 ng/mL; the IL-6 secreted by FS-4 fibroblasts, TNF 1.5 ng/ml, 4 µg/ml antibody came to 1.96 ng/mL; the IL-6 secreted by FS-4 fibroblasts, TNF 7.5 ng/ml, 4 µg/ml antibody worked out at 2.16 ng/mL.
